Data taken from the DeepSol protein solubility set.

assay: soluble on expression in E. coli; label from the status in PepcDB or PDB records

Sequence	soluble on expression in E. coli
MGHHHHHHSHMKNYYYFLGQGLTLSPRLECSSTISAHCNLHLLGSSNSPVAASPVAGTTGTCHHDWLIFVFLVETGFHHIGQTGLEFLTSGDPPTLASKSAGITGVSHCAWPTFLLNDMRHSFNKNLVIIFYVPAIS	not soluble
MISSGWMQEMEPIPEEGTEADGSEWGAMSDTAKRTMRKKEVYTSEQINTLVSTVPKEAVPQEWLVENQVVDPEMATSYLTESLAGPTSARGSSYSYSYESHYDNPPEEEYEHFTNDDGVHQMQKVTRVTKVTTTRSVRQVPVQSPYSNIDFDSSGLPTPSPVIDRDPSLEMMARMGGASDHDSEDRSAPPPAPASRFLHEDSGIPSAPGVPDVVDAGIGEVTVVWSAPLQSNGGEVRGYQIEMREFPDGEWESMGVDHLLKDTTCRVTNLTSHEVQFRVSAYGRTGFGPASNPSLPVKIPISETDLATSAGAPLAPGRPTVIAVDGQGVLLEWTPPVADVHSSPPQGYQVEYRVYGSRDWIVANEQLVQENVFTVESLRPNGVYEFRVRGKNQDGLGHPSMSSGGVAIRPAAPQRHVPARKVSESVQPPGQPQMVEVGDDVVKLEWAPSVQNARYIVEYREVGDPEWHTANYDPIVQNGIQVEGLHRNSTYEFCVISIVDNIASQPSETSDIIHLRPTCNTSALRPAPNILEAPEFLEVDGDKITICWLPAQSQLPVMGYDVEFRDLQQDDRWYKVNDQPVFACKMTVGDLIMDHDYQFRVLAHNASGCSQPSPPSDFVHIEPSTNRFSSDTMESPHLGHHDVVKYVEAERFGAVPLLQEEMVRESPPLPERDDSPPPLRRANNNVQWRDPSLKEVIEYLSSADKDKQLNASGYLQHLTYTDNQIKEETREYGGIPKLIALLRSDTPRIQKNACACLKNLSFGKENDANKLAVMEADGVRLIAEVLRTTHDASVKEEAAAALWNLSSADMLKPVILESATEILSQQVIAPVLAVGTSDPTRHFGSTLFKNSTGVLRNVSAASQQARRRLRDIPNLIEALVHFLTHAIQKSQVDSPTVENAVCLLRNLSYRIQEVVDPNYDPAAAHSSSSKNMKHVASPKPEKKKKDKEKKKDKNPKNIVTGPSVLWQPHVVKLYLKLLQDSSNIETLEASAGAIQNLAACQFPPSAEVRAAVRVEKGLPVLVELIRLPEDFVVCAVATALRNLAIDPRNRELIGKYALRDFLDKLPEPGSPRRSAISDQTIGAVLGILFEIVRSSAAYTKDVHELKGTDKLRALSRSYPTYSHRVCKYASQVLYVMWQHKELHDGFKRSGLKEADFYSGTARRGDSSTLARPISSQGRERPSMHQLDETLSSGGGYGTMESNNRAGTLRPASATSQTIQRRYDQVPRDGPVYSSVQKPSPRGGGGGGNIDDSWV	not soluble
MSLAAKVVPTLQQLAWQQMELTAFLHFGINTFTDSEWGDGKEDPALFNPVELDARQWVRILHEAGFRMVILTAKHHDGFCLWPTATTRHSVASSPWREGKGDVVKEVRAACEEYGMKFGIYLSPWDRNAECYGDSHRYNRFFVSQLTELLTHYGEVHEVWFDGANGEGPNGKRQEYDWETFYDTIRRLQPQAVMAIMGDDVRWVGNERGLGRTTEWSATVLTPGIYSRSKTERNRLGIRENSPDLGSREVLKEAGEIFWYPSEVDVSIRPGWFYHAAEDKKVKSLDKLVDIYFQSVGYNSVLLLNVPPDRRGLIHEADALRLKEWADYLGRAFAHDRVVDSARYAVVQGHAVEEYALESKTHINILMLQEDITKGQRTEAFTVEAWVDGAWQEIGRGTTIGYKRLLRIPAVETDRIRVRIEQCRLPVNLCRVAVYYAEGHHHHHH	soluble
MSENENSQEKNELLDALNSVEEVNVGDVVKGEVLAIDDDKQVIVGIQGTGVEGVVPLKELSTQRVDDVNEAAKVGDVLDLVVISRIGSDKENGSYLLSHRRLEARKVWDDVEKEYEAGHTIKAPVTQVVKGGLVVDAGVRGFIPASMIDDHYVEDLNAYKGQELELKIIEIEPSENRLILSHRAVVEKQREAQREEALKTLQAGDVVEGKVARLTNFGAFVDLGGIDGLVHVSEISYERVEKPADVLKVGQEVTVKILSVDADRERVSLSIKATLPEPWDGIEEKAPQGAVLDGKVKRLTSFGAFVEVFPGVEGLVHISQISHQHIATPNDVLKVGQEIKVKVLDVRPDEKRLALSIKALEEKPQTADDDNESQPERRSNNNRRRNNNRDNRTASERSTANAPEESTGFTLGDLIGDELKNAESNNDENLEHHHHHH	not soluble
MKILLRNALITNEGKTFPGSVMIDGAFISRIIEGELPADDNLSADEVIECSGLRLFPGCIDDQVHFREPGLTHKATIASESRAAVAGGVTSFMDMPNTNPPTTMWERLLEKRQIGADTAWANYGFFFGGTNDNIDEIKRVDKHLVPGLKLFLGSSTGNMLVDNKETLEKIFGECDLLIATHCEKEEIIRANKEHYKAKYGNDLDIHFHPLIRSEEACYRSSAEAVELAERMNARLHILHLSTEKELSLFRNDIPTAQKRITSEVCVHHLWFSDTDYGRLGNRIKWNPAIKKESDREALRAAVRNGRIDIIATDHAPHLLREKEGSCLQAASGGPLVQHSLLALLELCNQ	not soluble
MGSDKIHHHHHHMKAIGYQTAGAITAPNALENITLAEPTATGFDLLVEIKAISVNPVDTKIRASSSAPTGEYKIIGWDAVGVVKAVGEKVSLFNVGDEVWYAGDISRSGSYAEYQLVDERIVGHKPKSLTYTQAAALPLTGITAWEILFDRLALPQDGSATDARILIIGAAGGVGSIITQLAVKLTGAEVIGTASRPESAAWVHKLGANAVINHTKPLSKELANIGITDVTHVISLTQTDQHFDEIVQVLKPQGKLALIDDPKGPLDVMKLKRKSLSLHWELMFTRSLYQTEDMIAQHHLLNRLSALIDTGELQSTFGEHYGTINAQNLIKAHAQIESGKAIGKIVLEGFNQ	not soluble
MHFKDLGLHDYTLKNLMYENNCCKFYDAVDENNISYVLKFVPSDVTSEGDTFPFVDRFQVKEGVFLVYSSNDFGKEGTDYFTYTGSGGNEVHISGTSSEAGIKPQFIETCHPKHLKRGTKEQEDINSSTSKKSAVINNFSGEKTPNPRPQSSNISERETYVGILNVKCKNKNSSKIRSEKLVSSVIETKHTPGLASILSKEGTTYPNNADGKHISIVNPSSKIYHSSHKQIVKTPIPKSGLSPIERCPFNGQNIKCYSPRPLDHESPQRDFNNNFQLRILKSSVLQRRQSTQNS	soluble
MGSDKIHHHHHHMEEEMLKCKRLFVSDMDGTFYLGNTLLPGSLDFAMAVHRLGARLVFLTNNSSRTPEEYIRKLEKMGVDRKLFQVYTSGEATISFLKRDFAKKKAFLLSTPSVREMFEKGGVMLDDFDPEVLVLAFDTSITYEKIRRAALLIRQGIPYVASHPDINCPTEEGPIPDVGSLISLFETSTGRRPDHIIGKPDPAILKMVMEDFDCSQEETVVIGDRLYTDIECGLKAEVDTFLVLSGETTRDMIPDRHSYKVVENVGSLAKKIRDHDTV	not soluble
MAHHHHHHSLKNTLGRQFSRATETYEKWAVPQRKSAKILVEFVKPSGLVLDLGCGTGFISEFVNDCEVVGLDISEGMAKAYREKFRKVVIGNAENLPFKDRSFDFVLSNFSLHWSDWRKSIREALRVCKNFVGVAIPVYGSVSFSEFPFPKAEEILEEFKPQEFKIINLEIPFRGMELIKFFHYTGTANFTGKKNFKTKRELIKLSKDLEKEYFKVLFLKLKSRAFEG	soluble
MSFTDEKIRLNIGGTIFETSKSTLTKFDGFFKTLLETDIPIQKDDSNCIFIDRSPRHFEKILNYLRDGADVDLLPESEKEVREILKEAQFYLLEGLMELCKRSSCKIRTFESYHHLLKLIAEAGKPVLVMFYLVKDNRIVHVPNNFEFLDFLEKHQGKLDIYFKESPYETTHQNPSQFLPPGREEAAPSWTYCFYNTPKLPFRFTISFVEKLEEDIEFVLGNLNK	not soluble
MGSDKIHHHHHHMKFNIKSVKNYRLPMSWQHIQKGTMYCSLINEFFADWFQKVLGDQWLMIGGLSAELELNLPLRHKIILMPEMTKNPTALFPANQNVTEEISLIQADPLQLPFVQQSIHACVLANTLNFTQHSHQLLGEIARVLENDGYLFISLFNPYSPLIFKQNLNHKNQTALPFKQYFTWRILDWIKLLNFEILDQVNLSEKKQQDCFSPLTLIVAQKRTYPFPLYKIKNKIVPYQSFQFMGENTKNAT	not soluble
MDSELKEEIPVHEEFILCGGAETQVLKCGPWTDLFHDQSVKRPKLLIFIIPGNPGFSAFYVPFAKALYSLTNRRFPVWTISHAGHALAPKDKKILTTSEDSNAQEIKDIYGLNGQIEHKLAFLRTHVPKDMKLVLIGHSIGSYFTLQMLKRVPELPVIRAFLLFPTIERMSESPNGRIATPLLCWFRYVLYVTGYLLLKPCPETIKSLLIRRGLQVMNLENEFSPLNILEPFCLANAAYLGGQEMMEVVKRDDETIKEHLCKLTFYYGTIDPWCPKEYYEDIKKDFPEGDIRLCEKNIPHAFITHFNQEMADMIADSLKDDLSKM	soluble
MAHHHHHHMSIAASSARKDGPHHPSSGLTGKETLQDARKMEYRASTLEAGGNDMECLQLMETALQIRCKEYGTGSSSPELLKEACDAAERVVMKCNVLGVKLFKEGKYDVATPLFGYAMEMTGEGSFPLRKDDERRRRLRGVTLNNHGCMERHRGHFSTALDYMQQSMQCTGQQSPVAFLNISAVQVQLRLCEEAAHSAVCAIQSLGPNPEDPSLLAVAHHNLAMALELIDPPRAHEEYRLALGLAQNTISRRSEVTRTIESNMQRFVMVLHECRPGNSALTGTNSPRSSCGHTLFVSPRSCSRERSPSGRDAASRTHRVDIFPHPFAVSAKETVAKRSISRPARADAGHPPKRLTSLSPMN	not soluble
MKELIRKLTEAFGPSGREEEVRSIILEELEGHIDGHRIDGLGNLIVWKGSGEKKVILDAHIDEIGVVVTNVDDKGFLTIEPVGGVSPYMLLGKRIRFENGTIGVVGMEGETTEERQENVRKLSFDKLFIDIGANSREEAQKMCPIGSFGVYDSGFVEVSGKYVSKAMDDRIGCAVIVEVFKRIKPAVTLYGVFSVQEEVGLVGASVAGYGVPADEAIAIDVTDSADTPKAIKRHAMRLSGGPALKVKDRASISSKRILENLIEIAEKFDIKYQMEVLTFGGTNAMGYQRTREGIPSATVSIPTRYVHSPSEMIAPDDVEATVDLLIRYLGA	not soluble
MILFVGFLLMEIVMPQISRTALVPYSAEQMYQLVNDVQSYPQFLPGCTGSRILESTPGQMTAAVDVSKAGISKTFTTRNQLTSNQSILMNLVDGPFKKLIGGWKFTPLSQEACRIEFHLDFEFTNKLIELAFGRVFKELAANMVQAFTVRAKEVYSARLEHHHHHH	not soluble
MGHHHHHHSHGGCRELRSTKYISDGQCTSISPLKELVCAGECLLLPVLPNWIGGGYGTKYWSRRSSQEWRCVNDKTRTQRIQLQCQDGSTRTYKITVVTACKCKRYTRQHNESSHNFESMSPAKPVQHHRERKRASKSSKHSMS	not soluble
MSLKLFPQFDGISLKDRFFLLESFKVDVLANNVYYTESSLVPFLSKMKGVLARDGNIKHYLAEGKRICVLGDVHGSPMDVSAFYDLCMLKDVQLQCFQEVGDDRGSQFTMDLSSVYVFLGDYVDRGSRGLACVLFIYVLKYLYPRNVLLLRGNHECDAMNRIYGFTKEIYKYYGSHSPIYQAIQDTFAAIPYFFRLIYLPQSLCRALERFCNRVIPSASSSTRWTNSEIMCLASMVSSVTSWAGQAGATNEAKLDDLADSQEAHMLKCRLEEESLTIFCCHGGPPCVYTEYGRQLDLYLGIDSYENILQRSLTIVDPLAGELTWNDPAPHRFKSPSTLYEPSQRRLGYRYSYDLFRTWCKHTGVDLVLRGHEVALDGVHQDFQYAFEPKQLGGPNQELEYWFSVSTLRETPRHFTVFSSSFYEHLTNHGAAAIIRFEVPVDGVAPALVIRCFTLSEGHHHHHH	not soluble
